The results in this text go back to article PMC11558545, “Mechanistic Insights into the Function of 14-3-3 Proteins as Negative Regulators of Brassinosteroid Signaling in Arabidopsis” (Plant and Cell Physiology, 2024).

The chains are these.
B3: Arabidopsis 14-3-3 omega, full length (At14-3-3-ω^1−259) (natural protein, Arabidopsis thaliana, UniProt Q01525 1-259, looked up)
chain: MASGREEFVYMAKLAEQAERYEEMVEFMEKVSAAVDGDELTVEERNLLSVAYKNVIGARRASWRIISSIEQKEESRGNDDHVTAIREYRSKIETELSGICDGILKLLDSRLIPAAASGDSKVFYLKMKGDYHRYLAEFKTGQERKDAAEHTLAAYKSAQDIANAELAPTHPIRLGLALNFSVFYYEILNSPDRACNLAKQAFDEAIAELDTLGEESYKDSTLIMQLLRDNLTLWTSDMQDDAADEIKEAAAPKPTEEQQ
notes: 14-3-3 omega (GRF2), Arabidopsis thaliana, full length, residues 1-259; ITC and SEC-RALS name 14-3-3 ω without limits; not shown: thioredoxin A, N-terminal, cleaved; 8xHis, N-terminal, cleaved; StrepII, N-terminal, cleaved
B4: C-terminal truncated At14-3-3-ω^1−237 (domain or fragment, Arabidopsis thaliana, UniProt Q01525 1-237, looked up)
chain: MASGREEFVYMAKLAEQAERYEEMVEFMEKVSAAVDGDELTVEERNLLSVAYKNVIGARRASWRIISSIEQKEESRGNDDHVTAIREYRSKIETELSGICDGILKLLDSRLIPAAASGDSKVFYLKMKGDYHRYLAEFKTGQERKDAAEHTLAAYKSAQDIANAELAPTHPIRLGLALNFSVFYYEILNSPDRACNLAKQAFDEAIAELDTLGEESYKDSTLIMQLLRDNLTLWTSD
notes: 14-3-3 omega (GRF2), Arabidopsis thaliana, residues 1-237; also called truncated 14-3-3 ω; not shown: thioredoxin A, N-terminal, cleaved; 8xHis, N-terminal, cleaved; StrepII, N-terminal, cleaved
B5: Arabidopsis 14-3-3 lambda (At14-3-3-λ^1−248) (natural protein, Arabidopsis thaliana, UniProt P48349 1-248, looked up)
chain: MAATLGRDQYVYMAKLAEQAERYEEMVQFMEQLVTGATPAEELTVEERNLLSVAYKNVIGSLRAAWRIVSSIEQKEESRKNDEHVSLVKDYRSKVESELSSVCSGILKLLDSHLIPSAGASESKVFYLKMKGDYHRYMAEFKSGDERKTAAEDTMLAYKAAQDIAAADMAPTHPIRLGLALNFSVFYYEILNSSDKACNMAKQAFEEAIAELDTLGEESYKDSTLIMQLLRDNLTLWTSDMQEQMDEA
notes: 14-3-3 lambda (GRF6), Arabidopsis thaliana, full length, residues 1-248; The ITC text names 14-3-3λ without limits; a truncated 1-240 construct was also cloned; not shown: thioredoxin A, N-terminal, cleaved; 8xHis, N-terminal, cleaved; StrepII, N-terminal, cleaved

In data set [1] the target is B4. The data set is described as follows: crystal structure; co-crystallisation of 14-3-3 with 1-3 mM phosphopeptide; molecular replacement. The conditions noted are these: both partners purified.
Data set [2] has as its target B5. The data set is described as follows: ITC; Nano ITC, 25°C, 25 mM Hepes pH 7.0, 50 mM KCl; 600 μM peptide or phosphopeptide injected into 50 μM 14-3-3 protein in the cell, 25 injections. The conditions noted are these: both partners purified. (In general: Isothermal titration calorimetry measures the heat released or taken up as one component is titrated into another.)

The target of data set [3] is B3. The description is as above. The conditions noted are these: both partners purified.
For another data set, the target named is T1, At14-3-3 λ^N233A (Arabidopsis thaliana, UniProt P48349 1-248, N233A).
T1 construct: 14-3-3 lambda (GRF6), Arabidopsis thaliana, with N233A; also called 14-3-3λ Asn233→ Ala mutant; source: E. coli BL21 (DE3) RIL, purified using the same protocol as the wild type; not shown: thioredoxin A, N-terminal, cleaved; 8xHis, N-terminal, cleaved; StrepII, N-terminal, cleaved
T1 sequence (looked up): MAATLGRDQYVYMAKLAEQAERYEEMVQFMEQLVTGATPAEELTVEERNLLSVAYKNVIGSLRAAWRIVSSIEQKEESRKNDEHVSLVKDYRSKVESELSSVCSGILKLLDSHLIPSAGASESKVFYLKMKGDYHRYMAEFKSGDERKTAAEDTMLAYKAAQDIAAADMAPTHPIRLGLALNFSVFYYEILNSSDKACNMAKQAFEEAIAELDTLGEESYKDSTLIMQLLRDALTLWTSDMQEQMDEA
The description is as above. The conditions noted are these: both partners purified.

Data set [4] deals with the molecule itself. The data set is described as follows: crystal structure; co-crystallisation of 14-3-3 with 1-3 mM phosphopeptide; molecular replacement.
Data set [5] concerns the molecule itself. The data set is described as follows: SEC; analytical, Superdex 200 increase 10/300 GL, 25 mM Hepes pH 7.0, 50 mM KCl; 500 μl of protein at 2.0 mg/ml. In general terms: SEC sorts molecules by how far they enter the pores of the column.
For data set [6], the target named is B3. The data set is described as follows: crystal structure; co-crystallisation of 14-3-3 with 1-3 mM phosphopeptide; molecular replacement. The conditions noted are these: both partners purified.
Data set [7] addresses T2, Arabidopsis 14-3-3 isoform kappa (At14-3-3-κ^1−248) (Arabidopsis thaliana, UniProt P48348 1-248).
T2 construct: 14-3-3 kappa (GRF8), Arabidopsis thaliana, full length, residues 1-248; The ITC text names 14-3-3κ without limits; a truncated 1-240 construct was also cloned; not shown: thioredoxin A, N-terminal, cleaved; 8xHis, N-terminal, cleaved; StrepII, N-terminal, cleaved
T2 sequence (looked up): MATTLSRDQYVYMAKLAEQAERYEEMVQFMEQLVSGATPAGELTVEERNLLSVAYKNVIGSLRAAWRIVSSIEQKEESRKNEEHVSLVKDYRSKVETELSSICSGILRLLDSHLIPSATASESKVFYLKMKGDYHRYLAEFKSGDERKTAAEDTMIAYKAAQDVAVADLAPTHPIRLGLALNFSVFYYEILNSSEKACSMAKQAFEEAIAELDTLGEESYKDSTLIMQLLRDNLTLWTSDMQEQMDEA
The data set is described as follows: ITC; Nano ITC, 25°C, 25 mM Hepes pH 7.0, 50 mM KCl; 600 μM peptide or phosphopeptide injected into 50 μM 14-3-3 protein in the cell, 25 injections. The settings on record: both partners purified.

Square brackets hold non-standard residues; d marks the D form. Ends that are not written are not given here. pT = C[C@@H](OP(=O)(O)O)[C@H](N)C(=O)O; pS = N[C@@H](COP(=O)(O)O)C(=O)O

B1: pBKI1^265−272 peptide (peptide)
peptide: RGELF[pS]AP
notes: also called RGELFpSAP; source: synthetic peptide (Peptide Specialty Laboratories)
As to B1, the binding result (in data set [1]; in data set [2]; in data set [3]; with At14-3-3 λ^N233A) was “binds” each time.

B2: pBZR1^169−175 peptide (peptide)
peptide: RISN[pS]AP
notes: also called RISNpSAP; source: synthetic peptide (Peptide Specialty Laboratories)
In the case of B2, the binding result in data set [1] and in data set [2] was “binds” each time. For the same molecule, the “fold reduction of interaction by the N233A mutation” value in the data set with At14-3-3 λ^N233A was around 5 fold.
For the molecule B3, in data set [4], the binding result is on record as “binds”.
Consider B4, for which the binding result in data set [4] is on record as “binds”.
Still for that read-out and setting: the result for B5 reads “binds”.

B6: 14-3-3 λ^R136L/Y137F (natural protein, Arabidopsis thaliana, UniProt P48349 1-248, looked up)
chain: MAATLGRDQYVYMAKLAEQAERYEEMVQFMEQLVTGATPAEELTVEERNLLSVAYKNVIGSLRAAWRIVSSIEQKEESRKNDEHVSLVKDYRSKVESELSSVCSGILKLLDSHLIPSAGASESKVFYLKMKGDYHLFMAEFKSGDERKTAAEDTMLAYKAAQDIAAADMAPTHPIRLGLALNFSVFYYEILNSSDKACNMAKQAFEEAIAELDTLGEESYKDSTLIMQLLRDNLTLWTSDMQEQMDEA
notes: 14-3-3 lambda (GRF6), Arabidopsis thaliana, with R136L and Y137F; also called 14-3-3λ Arg136→Leu/Tyr137→ Phe double mutant; source: E. coli BL21 (DE3) RIL, purified using the same protocol as the wild type; not shown: thioredoxin A, N-terminal, cleaved; 8xHis, N-terminal, cleaved; StrepII, N-terminal, cleaved
A word on the stoichiometry N: it is a count of units in the complex or per binding partner. For B6, in data set [5], the “stoichiometry N” value was determined as 2.

B7: pBRI1^869−874 peptide (peptide)
peptide: RKL[pT]FA
notes: BRI1, Arabidopsis thaliana, residues 869-874, N-lobe of the kinase domain; also called RKLpTFA; source: synthetic peptide (Peptide Specialty Laboratories)
On to B7, for which the “fold reduction of interaction by the N233A mutation” value in the data set with At14-3-3 λ^N233A was around 2 fold.

B8: pBZR1^169−184 peptide (peptide)
peptide: RISN[pS]CPV[pT]PPVSSPT
notes: also called extended BZR1 linear motif; source: synthetic peptide (Peptide Specialty Laboratories)
Take B8: the binding result in data set [6] is “binds”. Besides, in data set [7], the “fold reduction of binding against the BZR1^169−175 motif” value is around 10 fold and the “stoichiometry N” value is around 1.
